Numbering of substitutions follows the chain as printed. Names and notes keep the numbering of the source.
B1: hu119-02 (antibody, human IgG1, kappa)
heavy: EVQLVQSGAEVKKPGSSVKVSCKASGFTFSTYNMHWVRQAPGQGLEWMGAIYPGNGETSYNQKFKDRVTLTVDKSTSTAYMELSSLRSEDTAVYYCAREDDYGEGYFDVWGQGTTVTVSSASTKGPSVFPLAPSSKSTSGGTAALGCLVKDYFPEPVTVSWNSGALTSGVHTFPAVLQSSGLYSLSSVVTVPSSSLGTQTYICNVNHKPSNTKVDKKVEPKSCDKTHTCPPCPAPELLGGPSVFLFPPKPKDTLYITREPEVTCVVVDVSHEDPEVKFNWYVDGVEVHNAKTKPREEQYNSTYRVVSVLTVLHQDWLNGKEYKCKVSNKALPAPIEKTISKAKGQPREPQVYTLPPSRDELTKNQVSLTCLVKGFYPSDIAVEWESNGQPENNYKTTPPVLDSDGSFFLYSKLTVDKSRWQQGNVFSCSVMHEALHNHYTQKSLSLSPGK
light: DIVMTQSPDSLAVSLGERATINCRASESVDNSGLSFMHWYQQKPGQPPKLLIYRASNLGSGVPDRFSGSGSGTDFTLTISSLQAEDVAVYYCQQINTDPLTFGQGTKLEIKRTVAAPSVFIFPPSDEQLKSGTASVVCLLNNFYPREAKVQWKVDNALQSGNSQESVTEQDSKDSTYSLSSTLTLSKADYEKHKVYACEVTHQGLSSPVTKSFNRGEC
notes: IgG1-YTE, kappa
B2: hu119-05 (antibody, human IgG1, kappa)
heavy: B1 heavy with F27G, L70I, V72A
light: B1 light with M4L
notes: IgG1-YTE, kappa
B3: hu119-09 (antibody, human IgG1, kappa, V domains shown)
VH: EVQLVQSGAEVKKPGSSVKVSCKASGGTFSTYNMHWVRQAPGQGLEWMGAIYPGNGETSYNQKFKDRVTITADKSTSTAYMELSSLRSEDTAVYYCAREDDYGEGYFDVWGQGTTVTVSS
VL: DIVMTQSPDSLAVSLGERATINCRASESVDNSGLSFMHWYQQKPGQPPKLLLYRASNLGSGIPDRFSGSGSGTDFTLTISSLQAEDVAVYYCQQINTDPLTFGQGTKLEIKR
notes: IgG1-YTE, kappa
B4: hu119-29 (antibody, human IgG1, kappa, V domains shown)
VH: B3 VH with G27F, R38K, Q39H, M48I, V68A, I70L, A72V
VL: B3 VL with M4L, N31Q, L52I, I62V
notes: IgG1-YTE, kappa; also called hu119VH3 + hu119VL2-N31Q
B5: hu119-28 (antibody, human IgG1, kappa, V domains shown)
VH: B3 VH with G27F, R38K, Q39H, M48I, V68A, I70L, A72V
VL: B3 VL with M4L, N31S, L52I, I62V
notes: IgG1-YTE, kappa; also called hu119VH3 + hu119VL2-N31S
B6: hu119-12 (antibody, IgG1, V domains shown)
VH: B3 VH with G27F, R38K, Q39H, M48I, V68A, I70L, A72V
VL: B3 VL
notes: IgG1-YTE, kappa
B7: hu119-01 (antibody, human IgG1, kappa)
heavy: B1 heavy with F27G, L70I, V72A
light: B1 light
notes: IgG1-YTE, kappa
B8: hu119-04 (antibody, IgG1)
heavy: B1 heavy with R38K, Q39H, M48I, V68A
light: B1 light
notes: IgG1-YTE, kappa
B9: hu119-06 (antibody, human IgG1, kappa)
heavy: B1 heavy
light: B1 light with M4L
notes: IgG1-YTE, kappa
B10: hu119-08 (antibody, human IgG1, kappa)
heavy: B1 heavy with R38K, Q39H, M48I, V68A
light: B1 light with M4L
notes: IgG1-YTE, kappa
B11: hu119-10 (antibody, human IgG1, kappa, V domains shown)
VH: B3 VH with G27F, I70L, A72V
VL: B3 VL
notes: IgG1-YTE, kappa
B12: Ch179 (antibody, human IgG1, kappa, V domains shown)
VH: QVQLQQSGAELVRPGTSVKVSCKASGYAFTNYLIEWVKQRPGQGLEWIGVIDPGNGDTNYNENFKGKATLTADKSSSTAYIELSRLTSEDSAVYFCAREDNTGTAFDYWGQGTTLTVSS
VL: SIVMTQTPKFLLVSAGDRVTISCKASQSVSSDVTWYQQKPGQSPKLLIYYVSNHYTGVPDRFTGSGYGTDFTFTISSVQAEDLAVYFCQQHHRFPLTFGAGTKLELKR
notes: murine variable regions on human IgG1-YTE / kappa; also called chimeric antibody corresponding to mab179
B13: hu179-06 (antibody, human IgG1, kappa, V domains shown)
VH: EVQLVQSGAEVKKPGSSVKVSCKASGYTFSNYLIEWVRQAPGQGLEWIGVIDPGNGDTNYNENFKGRATLTADKSTSTAYIELSSLRSEDTAVYYCAREDNTGTAFDYWGQGTTVTVSS
VL: DIVMTQSPDSLAVSLGERATINCKASQSVSSDVTWYQQKPGQSPKLLIYYVSNHYTGVPDRFSGSGSGTDFTLTISSLQAEDVAVYYCQQHHRFPLTFGQGTKLEIKR
notes: IgG1-YTE, kappa
B14: hu179-15 (antibody, human IgG1, kappa, V domains shown)
VH: B13 VH with T28A, I81M
VL: B13 VL with D1S
notes: IgG1-YTE, kappa
B15: hu179-29 (antibody, human IgG1, kappa, V domains shown)
VH: B13 VH
VL: B13 VL with N53E
notes: IgG1-YTE, kappa
B16: hu179-07 (antibody, human IgG1, kappa, V domains shown)
VH: B13 VH
VL: B13 VL with L73F
notes: IgG1-YTE, kappa
B17: hu179-05 (antibody, human IgG1, kappa, V domains shown)
VH: B13 VH
VL: B13 VL with S43P
notes: IgG1-YTE, kappa
B18: hu179-03 (antibody, human IgG1, kappa, V domains shown)
VH: B13 VH with I48M, A68V, I81M
VL: B13 VL with S43P
notes: IgG1-YTE, kappa
B19: hu179-14 (antibody, human IgG1, kappa, V domains shown)
VH: B13 VH with T28A, I81M
VL: B13 VL with L73F
notes: IgG1-YTE, kappa
B20: hu179-27 (antibody, human IgG1, kappa, V domains shown)
VH: B13 VH
VL: B13 VL with S52E
notes: IgG1-YTE, kappa
B21: hu179-24 (antibody, human IgG1, kappa, V domains shown)
VH: B13 VH with Y27G, I48M, A68V, L70I, I81M
VL: B13 VL with H54Y
notes: IgG1-YTE, kappa
B22: hu179-02 (antibody, human IgG1, kappa, V domains shown)
VH: B13 VH with Y27G, I48M, A68V, L70I, I81M
VL: B13 VL
notes: IgG1-YTE, kappa
B23: hu179-32 (antibody, human IgG1, kappa, V domains shown)
VH: B13 VH
VL: B13 VL with Y55E
notes: IgG1-YTE, kappa
B24: hu179-31 (antibody, human IgG1, kappa, V domains shown)
VH: B13 VH
VL: B13 VL with H54E
notes: IgG1-YTE, kappa
B25: hu179-12 (antibody, human IgG1, kappa, V domains shown)
VH: B13 VH with R38K, R67K, S85R
VL: B13 VL with S43P
notes: IgG1-YTE, kappa
B26: hu179-20 (antibody, human IgG1, kappa, V domains shown)
VH: B13 VH with Y27G, I48M, N55Q, A68V, L70I, I81M
VL: B13 VL
notes: IgG1-YTE, kappa; also called hu179VH1-N55Q + hu179VL2
B27: hu179-04 (antibody, human IgG1, kappa, V domains shown)
VH: B13 VH with I48M, A68V, I81M
VL: B13 VL
notes: IgG1-YTE, kappa
B28: hu179-30 (antibody, human IgG1, kappa, V domains shown)
VH: B13 VH
VL: B13 VL with H54D
notes: IgG1-YTE, kappa
B29: hu179-01 (antibody, human IgG1, kappa, V domains shown)
VH: B13 VH with Y27G, I48M, A68V, L70I, I81M
VL: B13 VL with S43P
notes: IgG1-YTE, kappa
B30: hu179-26 (antibody, human IgG1, kappa, V domains shown)
VH: B13 VH
VL: B13 VL with S52D
notes: IgG1-YTE, kappa
B31: hu179-25 (antibody, human IgG1, kappa, V domains shown)
VH: B13 VH
VL: B13 VL with Y50E
notes: IgG1-YTE, kappa
B32: hu179-21 (antibody, human IgG1, kappa, V domains shown)
VH: B13 VH with Y27G, I48M, N55V, A68V, L70I, I81M
VL: B13 VL
notes: IgG1-YTE, kappa; also called hu179VH1-N55V + hu179VL2
B33: hu179-23 (antibody, human IgG1, kappa, V domains shown)
VH: B13 VH with Y27G, I48M, A68V, L70I, I81M
VL: B13 VL with N53D
notes: IgG1-YTE, kappa
B34: hu179-28 (antibody, human IgG1, kappa, V domains shown)
VH: B13 VH
VL: B13 VL with N53Q
notes: IgG1-YTE, kappa
B35: hu179-22 (antibody, human IgG1, kappa, V domains shown)
VH: B13 VH with Y27G, I48M, G56V, A68V, L70I, I81M
VL: B13 VL
notes: IgG1-YTE, kappa; also called hu179VH1-G56V + hu179VL2
B36: hu179-13 (antibody, human IgG1, kappa, V domains shown)
VH: B13 VH with R38K, R67K, S85R
VL: B13 VL
notes: IgG1-YTE, kappa
B37: hu199-08 (antibody, human IgG1, kappa, V domains shown)
VH: EVQLVQSGAEVKKPGASVKVSCKASGYTFTTYWMHWVRQAPGQGLEWMGMIDPSDSETTLIQKFKDRVTLTVDKSTSTAYMELSSLRSEDTAVYYCARTLDGYYDYWGQGTTVTVSS
VL: DIQMTQSPSSLSASVGDRVTITCRASENIYSYLAWYQQKPGKAPKLLVYFAKTLAEGVPSRFSGSGSGTDFTLTISSLQPEDFATYYCQHHYGTPWTFGGGTKVEIKR
notes: IgG1-YTE, kappa
B38: hu199-01 (antibody, human IgG1, kappa, V domains shown)
VH: B37 VH with L70M
VL: B37 VL with V48I
notes: IgG1-YTE, kappa
B39: hu199-02 (antibody, human IgG1, kappa, V domains shown)
VH: B37 VH with L70M
VL: B37 VL
notes: IgG1-YTE, kappa

molecular target: T1, His-tagged human TSLP antigen (huTSLP-his) (human); assay: ELISA, coated huTSLP-his;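 also: binding of antibodies to plate-bound TSLP read as absorbance at 450 nm after TMB colour development, EC50 derived from binding curves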
T1 construct: Secreted from HEK293E and purified on nickel; whole entry named; also called Human TSLP-his

Row | EC50 [nM] | Binder
1 | 0.194 | B1
2 | 0.144 | B2
3 | 0.149 | B3
4 | 0.273 | B4
5 | 0.265 | B5
6 | 0.203 | B6
7 | 0.107 | B7
8 | 0.188 | B8
9 | 0.221 | B9
10 | 0.202 | B10
11 | 0.233 | B11
12 | 0.202 | B12
13 | 0.219 | B13
14 | 0.203 | B14
15 | 0.204 | B15
16 | 0.448 | B16
17 | 0.142 | B17
18 | 0.138 | B18

Row | EC50 [nM] | Binder
19 | 0.205 | B19
20 | 0.18 | B20
21 | 0.636 | B21
22 | 0.17 | B22
23 | 0.145 | B23
24 | 0.201 | B24
25 | 0.144 | B25
26 | 0.708 | B26
27 | 0.189 | B27
28 | 0.246 | B28
29 | 0.125 | B29
30 | 0.201 | B30
31 | 0.131 | B31
32 | 0.978 | B32
33 | 0.997 | B33
34 | 0.0906 | B34
35 | 0.752 | B35
36 | 0.201 | B36

molecular target: T2, Fc-tagged human TSLP antigen (huTSLP-Fc) (human, biotin-labeled in the blocking assays); assay: competition ELISA: blocks TSLP binding to TSLP receptor
T2 construct: whole entry named; also called recombinant human TSLP-Fc

Row | IC50 [nM] | Binder
37 | 0.283 | B37
38 | 0.191 | B38
39 | 0.219 | B39
